Data as given in patent publication US5948643, “Modulators of BRCA1 activity” (Onyx Pharmaceuticals, Inc., dated 1999).
One block for each binder: values may come before it.

Key:
[1] = biological target: T1, vector control (GAL4 binding domain vector without insert) (Saccharomyces cerevisiae (strain ATCC …, UniProt P04386)); assay: yeast two-hybrid, b-galactosidase; vector control
Description: (§1) The experiment was conducted using the two-hybrid assay as described in U.S. Pat. No. 5,283,173, or Chien et al., 1991, Proc. Natl. Acad. Sci. USA, 88: 9578–9582. The cDNAs that encode 091-1F84, Sequence ID No. 3, 091-21A31, Sequence ID No. 1 and 091-132Q20, Sequence ID No. 5 were fused to the GAL 4 activation domain, and those regions of BRCA1 shown in the table were fused to the binding domain of GAL4. The "+" sign is a subjective measure of the amount of b-galactosidase activity. One "+" being the lowest, and three "+++" being the highest activity.
(§2) Experiments were conducted to ascertain which regions of BRCA1 interact with the three BRCA1 Modulators described in Example 1. The experiment was conducted using the two-hybrid assay as described in U.S. Pat. No. 5,283,173, or Chien et al., 1991, Proc. Natl. Acad. Sci. USA, 88: 9578–9582. The cDNA that encodes the 091-1F84, Sequence ID No. 3, 091-21A31, Sequence ID No. 1, and 091-132Q20, Sequence ID No. 5 was fused to the GAL4 activation domain, and those regions of BRCA1 shown in Table 1 and that contain BRCA1 amino acids 1–300, 1–600, or 8–1293 were fused to the binding domain of GAL4. Controls consisted of the vector, or bcl2 fused to the GAL4 binding domain (See, U.S. Pat. 5,539,085).

[2] = biological target: BRCA1 (1-300) fused to the GAL4 binding domain (human); assay: yeast two-hybrid, b-galactosidase
Description: as §1, §2

[3] = biological target: T1, vector control (GAL4 binding domain …); assay: yeast two-hybrid (Example 3); vector control
Description: (§3) Two hybrid experiments were conducted to ascertain the regions of the BRCA1 Modulator 091-21A31, Sequence ID No. 1 that interact with BRCA1. The assay was run essentially as described in Example 1. Transformation and growth of yeast cultures were performed essentially as described in U.S. Pat. No. 5,283,173; Chien et al., 1991, Proc. Natl. Acad. Sci. USA, 88: 9578–9582; or Spaargaren, M., et al., (1994) Biochem. J. 300, 303–307.

[4] = biological target: BRCA1 (1-300) fused to the GAL4 binding domain (human); assay: yeast two-hybrid (Example 3)
Description: as §3

[5] = biological target: BRCA1 (1-600) fused to the GAL4 binding domain (human); assay: yeast two-hybrid (Example 3)
Description: as §3

[6] = biological target: GAL4-BRCA1 (8-1293): BRCA1 amino acids 8-1293 fused to the GAL4 binding domain (human); assay: yeast two-hybrid (Example 3)
Description: as §3

B1: BRCA1 Modulator Protein 091-1F84, Sequence ID No. 3, fused to the GAL4 activation domain (other)
chain: ARESLSLPSMLRDAAIGTTPFSTCSVGTWFTPSAPQEKSTNTSQTGLVGTKHSTSETEQLLCGRPPDLTALSRHDLEDNLLSSLVILEVLSRQLRDWKSQLAVPHPETQDSSTQTDTSHSGITNKLQHLKESHEMGQALQQARNVMQSWVLISKELISLLHLSLLHLEEDKTTVSQESRRAETLVCCCFDLLKKLRAKLQSLKAEREEARHREEMALRGKDAAEIVLEAFCAHASQRISQLEQDLASMREFRGLLKDAQTQLVGLHAKQEELVQQTVSLTSTLQQDWRSMQLDYTTWTALLSRSRQLTEKLTVKSQQALQERDVAIEEKQEVSRVLEQVSAQLEECKGQTEQLELENSRLATDLRAQLQILANMDSQLKELQSQHTHCAQDLAMKDELFCQLTQSNEEQAAQWQKEEMALKHMQAELQQQQAVLAKEVRDLKETLEFADQENQVAHLELGQVECQLKTTLEVLRERSLQCENLKDTVENLTAKLASTIADNQEQDLEKTRQYSQKLRLLTEQLQSLTLFLQTKLKEKTEQETLLLSTACPPTQEHPLPNDRTFLGSILTAVADEEPESTPVPLLGSDKSAFTRVASMVSLQPAETPGMEESLAEMSIMTTELQSLCSLLQESKEEAIRTLQRKICELQVRLQAQEEQHQEVQKAKEADIEKLNQALCLRYKNEKELQEVIQQQNEKILEQIDKSGELISLREEVTHLTRSLRRAETETKVLQEALAGQLDSNCQPMATNWIQEKVWLSQEVDKLRVMFLEMKNEKEKLMIKFQSHRNILEENLRRSDKELEKLDDIVQHIYKTLLSIPEVVRGCRELQGLLEFLS
binding result [1]: no binding
binding result [2]: no binding

B2: BRCA1 Modulator Protein 091-132Q20, Sequence ID No. 5, fused to the GAL4 activation domain (other)
chain: ARGGAEEATEAGRGGRRRSPRQKFEIGTMEEAGICGLGVKADMLCNSQSNDILQHQGSNCGGTSNKHSLEEDEGSDFITENRNLVSPAYCTQESREEIPGGEARTDPPDGQQDSECNRNKEKTLGKEVLLLMQALNTLSTPEEKLAALCKKYADLLEESRSVQKQMKILQKKQAQIVKEKVHLQSEHSKAILARSKLESLCRELQRHNKTLKEENMQQAREEEERRIEATAHFQITLNEIQAQLEQHDIHNAKLRQENIELGEKLKKLIEQYALREEHIDKVFKHKELQQQLVDAKLQQTTQLIKEADEKHQREREFLLKEATESRHKYEQMKQQEVQLKQQLSLYMDKFEEFQTTMAKSNELFTTFRQEMEKMTKKIKKKKKKLE
binding result [1]: no binding
binding result [2]: no binding

B3: 091-21A31, Sequence ID No. 1 fragment containing amino acids 1-300 fused to the GAL4 activation domain (other)
chain: MPIRALCTICSDFFDHSRDVAAIHCGHTFHLQCLIQWFETAPSRTCPQCRIQVGKRTIINKLFFDLAQEEENVLDAEFLKNELDNVRAQLSQKDKEKRDSQVIIDTLRDTLEERNATVVSLQQALGKAEMLCSTLKKQMKYLEQQQDETKQAQEEARRLRSKMKTMEQIELLLQSQRPEVEEMIRDMGVGQSAVEQLAVYCVSLKKEYENLKEARKASGEVADKLRKDLFSSRSKLQTVYSELDQAKLELKSAQKDLQSADKEIMSLKKKLTMLQETLNLPPVASETVDRLVLESPAPVE
binding result [3]: no binding
binding result [4]: no binding
binding result [5]: no binding

More lines, now with the values ahead:

binding result [3]: no binding
binding result [6]: no binding
binding result [4]: no binding
binding result [5]: no binding
B4: 091-21A31, Sequence ID No. 1 fragment containing amino acids 300-469 fused to the GAL4 activation domain (other)
chain: EVNLKLRRPSFRDDIDLNATFDVDTPPARPSSSQHGYYEKLCLEKSHSPIQDVPKKICKGPRKESQLSLGGQSCAGEPDEELVGAFPIFVRNAILGQKQPKRPRSESSCSKDVVRTGFDGLGGRTKFIQPTDTVMIRPLPVKPKTKVKQRVRVKTVPSLFQAKLDTFLWS

binding result [3]: no binding
binding result [4]: no binding
B5: 091-21A31, Sequence ID No. 1 fragment containing amino acids 78-469 fused to the GAL4 activation domain (other)
chain: FLKNELDNVRAQLSQKDKEKRDSQVIIDTLRDTLEERNATVVSLQQALGKAEMLCSTLKKQMKYLEQQQDETKQAQEEARRLRSKMKTMEQIELLLQSQRPEVEEMIRDMGVGQSAVEQLAVYCVSLKKEYENLKEARKASGEVADKLRKDLFSSRSKLQTVYSELDQAKLELKSAQKDLQSADKEIMSLKKKLTMLQETLNLPPVASETVDRLVLESPAPVEVNLKLRRPSFRDDIDLNATFDVDTPPARPSSSQHGYYEKLCLEKSHSPIQDVPKKICKGPRKESQLSLGGQSCAGEPDEELVGAFPIFVRNAILGQKQPKRPRSESSCSKDVVRTGFDGLGGRTKFIQPTDTVMIRPLPVKPKTKVKQRVRVKTVPSLFQAKLDTFLWS

binding result [1]: no binding
binding result [2]: no binding
B6: BRCA1 Modulator Protein 091-21A31, Sequence ID No. 1, fused to the GAL4 activation domain (other)
chain: MPIRALCTICSDFFDHSRDVAAIHCGHTFHLQCLIQWFETAPSRTCPQCRIQVGKRTIINKLFFDLAQEEENVLDAEFLKNELDNVRAQLSQKDKEKRDSQVIIDTLRDTLEERNATVVSLQQALGKAEMLCSTLKKQMKYLEQQQDETKQAQEEARRLRSKMKTMEQIELLLQSQRPEVEEMIRDMGVGQSAVEQLAVYCVSLKKEYENLKEARKASGEVADKLRKDLFSSRSKLQTVYSELDQAKLELKSAQKDLQSADKEIMSLKKKLTMLQETLNLPPVASETVDRLVLESPAPVEVNLKLRRPSFRDDIDLNATFDVDTPPARPSSSQHGYYEKLCLEKSHSPIQDVPKKICKGPRKESQLSLGGQSCAGEPDEELVGAFPIFVRNAILGQKQPKRPRSESSCSKDVVRTGFDGLGGRTKFIQPTDTVMIRPLPVKPKTKVKQRVRVKTVPSLFQAKLDTFLWS
